Target: T1, szz-tagged mutant Rrp44-cat protein (S. cerevisiae, UniProt Q08162 1-1001, D551N)
T1 sequence (looked up): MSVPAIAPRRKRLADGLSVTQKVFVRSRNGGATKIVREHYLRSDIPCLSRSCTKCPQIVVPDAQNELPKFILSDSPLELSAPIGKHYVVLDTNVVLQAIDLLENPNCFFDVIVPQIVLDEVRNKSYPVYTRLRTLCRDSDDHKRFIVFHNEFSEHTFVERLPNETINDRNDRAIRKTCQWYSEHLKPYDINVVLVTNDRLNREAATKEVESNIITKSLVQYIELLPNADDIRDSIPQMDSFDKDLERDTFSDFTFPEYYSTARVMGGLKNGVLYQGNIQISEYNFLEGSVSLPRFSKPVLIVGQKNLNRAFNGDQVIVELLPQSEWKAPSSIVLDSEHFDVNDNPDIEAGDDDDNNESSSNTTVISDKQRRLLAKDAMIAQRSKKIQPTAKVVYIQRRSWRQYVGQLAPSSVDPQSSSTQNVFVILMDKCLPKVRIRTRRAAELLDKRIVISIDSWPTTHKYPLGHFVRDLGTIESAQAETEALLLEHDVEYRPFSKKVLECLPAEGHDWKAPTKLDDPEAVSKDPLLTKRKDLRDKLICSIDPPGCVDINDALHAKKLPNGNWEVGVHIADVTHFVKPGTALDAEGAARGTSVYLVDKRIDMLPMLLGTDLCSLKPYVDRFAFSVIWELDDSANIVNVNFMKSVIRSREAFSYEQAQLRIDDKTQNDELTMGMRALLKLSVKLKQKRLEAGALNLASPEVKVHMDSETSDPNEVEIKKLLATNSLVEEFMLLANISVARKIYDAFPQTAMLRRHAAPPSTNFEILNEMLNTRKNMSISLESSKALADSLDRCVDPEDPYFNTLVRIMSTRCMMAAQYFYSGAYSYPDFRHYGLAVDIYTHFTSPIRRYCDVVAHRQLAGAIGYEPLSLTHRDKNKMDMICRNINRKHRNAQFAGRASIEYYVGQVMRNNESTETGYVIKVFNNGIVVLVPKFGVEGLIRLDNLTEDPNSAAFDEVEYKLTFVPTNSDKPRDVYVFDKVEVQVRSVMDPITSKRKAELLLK
Test: co-IP

fold recovered against wild-type Rrp44-szz: ~2 fold
B1: Rrp6 (natural protein, UniProt Q12149 1-733, looked up)
chain: MTSENPDVLLSRVINVVRAASSLASQDVDFYKNLDRGFSKDLKSKADKLADMANEIILSIDEHHESFELKEEDISDLWNNFGNIMDNLLEMSDHSLDKLNCAINSKSRGSDLQYLGEFSGKNFSPTKRVEKPQLKFKSPIDNSESHPFIPLLKEKPNALKPLSESLRLVDDDENNPSHYPHPYEYEIDHQEYSPEILQIREEIPSKSWDDSVPIWVDTSTELESMLEDLKNTKEIAVDLEHHDYRSYYGIVCLMQISTRERDYLVDTLKLRENLHILNEVFTNPSIVKVFHGAFMDIIWLQRDLGLYVVGLFDTYHASKAIGLPRHSLAYLLENFANFKTSKKYQLADWRIRPLSKPMTAYARADTHFLLNIYDQLRNKLIESNKLAGVLYESRNVAKRRFEYSKYRPLTPSSEVYSPIEKESPWKILMYQYNIPPEREVLVRELYQWRDLIARRDDESPRFVMPNQLLAALVAYTPTDVIGVVSLTNGVTEHVRQNAKLLANLIRDALRNIKNTNEEATPIPSSETKADGILLETISVPQIRDVMERFSVLCNSNISKSRAKPVTNSSILLGKILPREEHDIAYSKDGLPNKVKTEDIRIRAQNFKSALANLEDIIFEIEKPLVVPVKLEEIKTVDPASAPNHSPEIDNLDDLVVLKKKNIQKKQPAKEKGVTEKDAVDYSKIPNILSNKPGQNNRQQKKRRFDPSSSDSNGPRAAKKRRPAAKGKNLSFKR

Reference: article PMC7610968 (Molecular cell, 2007)
